Experimental findings from the nanobody polyreactivity screen of Harvey et al. (2022) are described below.

A short description of this data set: yeast display, Sf9 membrane polyspecificity reagent, FACS + sequencing; frameworks hold sequencing errors. In outline: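 Synthetic nanobody libraries on Saccharomyces cerevisiae BJ5465 were galactose-induced for 36–48 hours, stained 1 hour at 4 °C with 10% biotinylated, detergent-solubilized Sf9 membrane reagent and enriched on streptavidin microbeads. FACS then separated cells into low and high (top ~1%) gates by anti-HA (expression) and streptavidin (reagent binding) fluorescence. Genes were colony-PCR amplified, MiSeq 2 × 250 sequenced and CDR-length filtered. A clone's polyreactivity label is that of its gate of origin.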
As for “QVQLVESGGGLVQAGGSLRLSCAASGLIFDYYAMGWYRQAPGKERELVASINNRGGSTFYADSVKGRFTISRDNAKNTVYLQMNSLKPEDTAVYYCNAVRRTGGHGDYWGQGTQVTVSS”, the “polyreactivity (PSR sort gate)” value is on record as “high polyreactivity”.

Turning to “QVQLVESGGGLVQAGGSLRLSCAASGLIFDYYPMGWYRTAPGKERELVAAISYSGGRTYYADSVKGRFTISRDKAKNTVYLQMNSLKPEDTAVYYCNKVVLQPVIVDHDYWGQGTQVTVSS”, the “polyreactivity (PSR sort gate)” value is on record as “low polyreactivity”.

Turning to “QVQLVESGGGLVQAGGSLRLSCAASGLIFESNAMGWYRQAPGKGRELVAAITTNGGSTYYADSVKGRFTISRDKGKNTVYLQMNSLKPEDTAVYYCAARFSYRSYDYWGQGTQVTVSS”, the “polyreactivity (PSR sort gate)” value was “low polyreactivity”.

For “QVQLVESGGGLVQAGGSLRLSCAASGLIFFPKAMGGYRPAPGKERELVAYITWSGGGTNYSDSVKGRFTISRDNAKNTVYLQMNSLKPEDTAVYYCNADGTRDYFSLITGSYSVTYDYWGQGTQVTVSS”, the “polyreactivity (PSR sort gate)” value was “high polyreactivity”.

For “QVQLVESGGGLVQAGGSLRLSCAASGLIFFYYTMGWYRQAPGKERELVAAISQSGGRTYYADSVKGRFTISRDNAKNTVYLQMNSLKPEDTAVYYCAAAVRYRGDEFDYWGQGTQVTVSS”, the “polyreactivity (PSR sort gate)” value is reported as “low polyreactivity”.

“QVQLVESGGGLVQAGGSLRLSCAASGLIFGPYTMGWYRQAPGKERELVAAISRSGGITYYADSEKGRFTISRDNAKNTVYLQMNSLKPEDTAGYYCAARYSTQWSRYDYWGQGTQVTVSS”: the “polyreactivity (PSR sort gate)” value is given as “high polyreactivity”.

On to “QVQLVESGGGLVQAGGSLRLSCAASGLIFGRNAMGWYRQAPGKERELVAAISWSGGSTYYADSVKGRFTISRDNAKNTVYLEMKSLKPEDTAVYYCYRYRYYGSEDDYWGQCTQVTVSS”, for which the “polyreactivity (PSR sort gate)” value is “high polyreactivity”.

As to “QVQLVESGGGLVQAGGSLRLSCAASGLIFGRNAMGWYRQAPGKERELVAAISWSGGSTYYADSVKGRFTISRDNAKNTVYLQMNSLKPEDTAVYYCNRYRYYGSEDDYWGQGTQVTVSS”, the “polyreactivity (PSR sort gate)” value was “high polyreactivity”.

For “QVQLVESGGGLVQAGGSLRLSCAASGLIFGRNAMGWYRQAPGKERELVAAITSGGSTYYADSVKGRFTISRDNAKNTVYLQMNSLKPEDTAVYYCAADVVDLYLLDYWGQGTQVTVSS”, the “polyreactivity (PSR sort gate)” value is on record as “low polyreactivity”.

As to “QVQLVESGGGLVQAGGSLRLSCAASGLIFGSYVMGWYRQAPGKERELVAAITVRTGTTYYADSVKGRFTISRDNAKNTVYLQMNSLKPEDTAVYYCARRYRPKYGYWGQGTQVTVSS”, the “polyreactivity (PSR sort gate)” value is “high polyreactivity”.

Take “QVQLVESGGGLVQAGGSLRLSCAASGLIFGTYAMGWYRQAPGKERELVAVISSSGGSTYYADSVKGRFTISRDNAKNTVYLQLNSLKPEDTAVYYCNARAFRQGHFEYDYWGQGTQVTVSS”: the “polyreactivity (PSR sort gate)” value is “low polyreactivity”.

On to “QVQLVESGGGLVQAGGSLRLSCAASGLIFGYNAMGWYRQAPGKEREYVAGISVIDGRTYYADSVKGRFTISRDNAKNTVYLQMNSLKPEDTAVYYCATEGFVYSWLWEFEYWGQGNQVTVSS”, for which the “polyreactivity (PSR sort gate)” value was “low polyreactivity”.

In the case of “QVQLVESGGGLVQAGGSLRLSCAASGLIFHRNAMGWYRQAPGTERELVAAITKTGGGTYYADSVKGRFTISRDNAKNTVYLQMNSLKPEDTAVYYCAADTQRTFYYWGQGTQVTVSS”, the “polyreactivity (PSR sort gate)” value was “low polyreactivity”.

Turning to “QVQLVESGGGLVQAGGSLRLSCAASGLIFIDYAIGWYRQAPGKERELVAAITRGGARTYYADSVKGRFTISRDNAKNTVYLEMNSLKPEDTAVYYCAADRPGSRYIDVDYWGQGTQVTVSS”, the “polyreactivity (PSR sort gate)” value is “high polyreactivity”.

“QVQLVESGGGLVQAGGSLRLSCAASGLIFIFNTMGWYRQAPGKERELVAAISWSGTSTYYADSVKGRFTISRDNANMTVYLLMNSLKPVDTAVYFCNDDLYWFRGFDYWGQGTQVTVSS”: the “polyreactivity (PSR sort gate)” value was “high polyreactivity”.

“QVQLVESGGGLVQAGGSLRLSCAASGLIFIVYAMGWYRQAPGKERELVAAISWSGGSTYYADSVKGRFTISRDNAKNTVYLQMNSLKPEDTAVYYCAAESYGVWDYEYWGQGTQVTVSS”: the “polyreactivity (PSR sort gate)” value was “high polyreactivity”.

As to “QVQLVESGGGLVQAGGSLRLSCAASGLIFKYNVMGWYRQAPGKERELVAAITKRGGSTYYADSVKGRFTISRDNAKNTVYLQMNSLKPEDTAVYYCAARPVNTVRPFDYWGQGTQVTVSS”, the “polyreactivity (PSR sort gate)” value is reported as “high polyreactivity”.

As to “QVQLVESGGGLVQAGGSLRLSCAASGLIFKYNVMGWYRQAPGKERELVAAITKRGGSTYYADSVKGRFTISRDNEKNTVYLQMNSLKPEDTAVYYCAARPVNTVRPFDYWGQGTQVTVSS”, the “polyreactivity (PSR sort gate)” value is “high polyreactivity”.

Regarding “QVQLVESGGGLVQAGGSLRLSCAASGLIFKYYAMGWYRHAPGKERELVAAITWRGGDRTYYADSVKGRFTISRDNAKNTVYLQMNSLKPEDTAVYYCAAVISSPWRFDYWGQGTQVTVSS”, the “polyreactivity (PSR sort gate)” value is “high polyreactivity”.

In the case of “QVQLVESGGGLVQAGGSLRLSCAASGLIFKYYAMGWYRQAPGKERELVASISRGGVTTYYADSVKGRFTISRDNAKNTVYLQMNSLKPEDTAVYYCAARFRYAPFYHWGQGTQVTVSS”, the “polyreactivity (PSR sort gate)” value was “high polyreactivity”.

Regarding “QVQLVESGGGLVQAGGSLRLSCAASGLIFLWYAMGWYRQAPGKERELVAAIRSSGDSTYYADSVKGRFTISRDNAKNTVYLQMNSLKPEDTAVYYCNRRKTNSRYDYWGQGTQVTVSS”, the “polyreactivity (PSR sort gate)” value is reported as “low polyreactivity”.

Regarding “QVQLVESGGGLVQAGGSLRLSCAASGLIFLYAMGWYRQAPGKERELVAAISNGGSTYYADSVKGRFTISRDNAKNTVYLQMNSLKPEDTAVYYCAAKGVRRRYRQDMYYWGQGTQVTVSS”, the “polyreactivity (PSR sort gate)” value is reported as “high polyreactivity”.

For the sequence “QVQLVESGGGLVQAGGSLRLSCAASGLIFLYNPMGWYRQAPGKEREFVAAITSVDSTKYADSVKGRFTISRENAKNTVYLQLNSLKPEDTAVYYCAAVPRYQYGYWGQGTQVTVSS”, the “polyreactivity (PSR sort gate)” value is “low polyreactivity”.

Consider “QVQLVESGGGLVQAGGSLRLSCAASGLIFNWNDMGWYRQAPGKERELVAAISGDGGITYYADSVKGRFTISRDNAKNTVYLQMNSLKPEDTAVYYCNAGFTWGDWYDYWGQGTQVTVSS”, for which the “polyreactivity (PSR sort gate)” value was “low polyreactivity”.

For “QVQLVESGGGLVQAGGSLRLSCAASGLIFNYNSMGWYLQAPGKEMELVAVITSGDSTNYADSVKGRFTISRDNAKNTVYLQMNSLKPEDTAVYYCNADYVYSGGRYYGKDYWFDYWGQGTQVTVSS”, the “polyreactivity (PSR sort gate)” value is given as “low polyreactivity”.

For “QVQLVESGGGLVQAGGSLRLSCAASGLIFPGYAMGWYRPAPGKERELVAAISGSGGSTYYADSVKGRFTISRDNAKNTVYLQMNSLKPEDTAVYYCSTSGPQYYSRNFDYWGQGTQVTVSS”, the “polyreactivity (PSR sort gate)” value is “low polyreactivity”.

Turning to “QVQLVESGGGLVQAGGSLRLSCAASGLIFPKYAMGWYRQAPGNEREFVAAISGRGGTTYYADSVKGRFTISRDNAKNTVYLQMNSLKPEDTAVYYCAAGGPWANIYGNGYWGQGTQVTVSS”, the “polyreactivity (PSR sort gate)” value is “high polyreactivity”.

With “QVQLVESGGGLVQAGGSLRLSCAASGLIFPPNVMGWYRQAPWKERELVAAITSSGSTKYADSVKGRFTISRDNAKNTVYLQMNSLKPEDTAVYYCARDQTWSYQPWYYLSYPQYEYWGQGTQVTVSS”, the “polyreactivity (PSR sort gate)” value is recorded as “low polyreactivity”.

“QVQLVESGGGLVQAGGSLRLSCAASGLIFPPYAMGWYRQAPGKEREFVARISWSTSSTYYADSVKGRFTISRDNAKNTVYLQMNSLKPEDTAVYYCNARFDDWWGEFDYWGQGTQVTVSS”: the “polyreactivity (PSR sort gate)” value is “high polyreactivity”.

“QVQLVESGGGLVQAGGSLRLSCAASGLIFPVYVMGWYRQAPGKEREFVAAITWSTSTYYADSVKGRFTISRDNAKNTVYLQMNSLKPEDTAVYYCNARRGWYSPIYYYWGQGTQVTVSS”: the “polyreactivity (PSR sort gate)” value is given as “high polyreactivity”.

With “QVQLVESGGGLVQAGGSLRLSCAASGLIFQTYAMGWSRQAPGKERELVATISGSTGGTYYADSVKGRFTISRDNAKNTVYLQMNSLKPEDTAVYYCNASVFQSEYDYWGQGTQVTVSS”, the “polyreactivity (PSR sort gate)” value is on record as “low polyreactivity”.

With “QVQLVESGGGLVQAGGSLRLSCAASGLIFQVYDIGWYRQAPGKERELVAAISSGSNTNYADSVKGRFTISRDNAKNTVYLQMNSLKPEDTAVYYCAADFQYYFFWEEDYWGQGTQVTVSS”, the “polyreactivity (PSR sort gate)” value is “low polyreactivity”.

On to “QVQLVESGGGLVQAGGSLRLSCAASGLIFQVYDMGWYRQAPGKERELDAAISSGSNTNYADSVKGRFTISRDNAKNTVYLQMNSLIPEDTAVYYCAASWGYGGLTPDMGYWGQGTHVTVSS”, for which the “polyreactivity (PSR sort gate)” value is “low polyreactivity”.

As to “QVQLVESGGGLVQAGGSLRLSCAASGLIFRHYVMGWYRQAPGKERELVAAITSRGGTTYYADSVKGRFTISRDNAKNTVYLQMNSLKPEDTAVYYCATVHSYTIQRYDYWGQGTQVTVSS”, the “polyreactivity (PSR sort gate)” value is on record as “high polyreactivity”.

For “QVQLVESGGGLVQAGGSLRLSCAASGLIFRKNAMGWYRQAPGKERELVAAISSSDSSTYADSVKGRFTISRDNAKNTVYLQMYSLKPEDTAVYYCAAASYNWLDWVTREYWGQGTQVTVSS”, the “polyreactivity (PSR sort gate)” value is “low polyreactivity”.

For “QVQLVESGGGLVQAGGSLRLSCAASGLIFRQYAMGWYRPAPGKERELVAAITQTGGRTYYADSVKGRFTISRDNAKNTVYLQMNSLKPEDTAVYYCNALTFAAGDHYDYWGQGTQVTVSS”, the “polyreactivity (PSR sort gate)” value is reported as “low polyreactivity”.

For the sequence “QVQLVESGGGLVQAGGSLRLSCAASGLIFRRYAMGWYRQAPGKEREFVAAISWSGGSTYYADSVKGRFTISRDNAKNTVYLQMNSLKPEDTAVYYCAARYRFGGIRRYNYWGQGTQVTVSS”, the “polyreactivity (PSR sort gate)” value is “high polyreactivity”.

In the case of “QVQLVESGGGLVQAGGSLRLSCAASGLIFRRYAMGWYRQAPGKERELVAAISRTGGTTYYADSVKGRFTISRDNAKNTVYLQMNSLKPEDTAVYYCAAAGQGPDYDYWGQGTQVTVSS”, the “polyreactivity (PSR sort gate)” value was “high polyreactivity”.

“QVQLVESGGGLVQAGGSLRLSCAASGLIFRTYAMGWNRQAPGKERELVAAIRGGGSTNYADSVNGRFTISRDNAKNTVYLQMNSLKPEDTAVYYCAALVYAVTRRRVQGYGYDYWGQGTQVTVSS”: the “polyreactivity (PSR sort gate)” value is “low polyreactivity”.

Regarding “QVQLVESGGGLVQAGGSLRLSCAASGLIFRVYAMGWYRQAPGKERELVAAITWSDGSTYYADSVKGRFTISRDNAKNTVYLQMNSLKPEDTAVYYCATAYFRVYHSRYYYWGQGTQVTVSS”, the “polyreactivity (PSR sort gate)” value is “high polyreactivity”.

With “QVQLVESGGGLVQAGGSLRLSCAASGLIFRYYAMGVYRQAPGHERELVAALTSTGRTYYADSVKGRFTISRDNAKNTVYVQMNSLKPEDTAVYYCNTDQFADYHTDFWSDYEYWGQGTQVTVSS”, the “polyreactivity (PSR sort gate)” value is “low polyreactivity”.
